# Results taken from patent US8415106B2, “Cell-based screen for agents useful for reducing neuronal demyelination or promoting neuronal remyelination” (Myelin Repair Foundation, Inc., priority 2005, dated 2013).
# B1: IFN-γ: pleotropic cytokine secreted by activated T lymphocytes and natural killer cells; recombinant rat IFN-γ added to cultures or transgenically expressed in mouse CNS (protein, UniProt P01581 23-156, looked up)
# Interferon gamma: QGTLIESLESLKNYFNSSSMDAMEGKSLLLDIWRNWQKDGNTKILESQIISFYLRLFEVLKDNQAISNNISVIESHLITNFFSNSKAKKDAFMSIAKFEVNNPQIQHKAVNELIRVIHQLSPESSLRKRKRSRC
# Columns and labels:
# mice with EAE = test: MOG35-55-induced EAE, CNS delivery of INF-γ at the recovery stage (doxycycline withdrawn at PID7); assay type: in vivo; details: DOX− mice
# Text: Double transgenic mice that allow for temporally regulated delivery of INF-γ to the CNS (Lin et al., J Neurosci 24:10074-10083 (2004)) were used to assess the role of INF-γ in the pathogenesis of EAE. GFAP/tTA; TRE/IFN-γ double transgenic mice, as described in Example 1 were used to determine the effect of INF-γ on the demyelination caused by EAE. All mice were fed doxycycline from the day of conception to repress the expression of INF-γ, and were immunized with myelin oligodendrocyte protein (MOG35-55) to induce EAE. At day 7 postimmunization (PID7), doxycycline was withdrawn from the experimental group (PID7 DOX−).
# The level of INF-γ was determined in the control (DOX+) and the PID7 DOX− mice using an ELISA immunoassay as described in Example 1, and the severity of the disease was assessed as a function of a clinical score. Clinical severity scores were recorded daily according to a 0-5 point scale, where 0=healthy, 1=flaccid tail, 2=ataxia and/or paresis of hind limbs, 3=paralysis of hind limbs and/or paresis of forelimbs, 4=tetraparalysis, and 5=moribund or dead.
# The spinal cord from DOX+ and DOX− animals with EAE was immunostained for MBP, and the remyelination of axons was evaluated. The number of oligodendrocytes was determined in the spine from DOX+ and DOX− mice as the number of CC1 positive cells. Axonal damage was evaluated by immunostaining of non-phosphorylated neurofilament-H. Antibodies to non-phosphorylated neurofilament-H Were SMI32 diluted to 1:1000 and obtained from Sternberger Monoclonals.
# [1] = tested on: myelin basic protein (MBP); test: Hippocampal organotypic cultures (HOC), in vitro model of myelination, MBP Western blot; assay type: cell-based; details: 100 U/ml IFN-γ, 7 days, HOCs
# Method: HOCs, were prepared and maintained as described previously (Kunkler and Kraig (1997) J Cereb Blood Flow Metab. 17:26-43), and were maintained in vitro for 7 days before use. SAL at various concentrations was combined with 100 U/ml IFN-γ and added to the HOC cultures for 7 days. […] After 7 days of 100 U/ml IFN-γ exposure, the levels of MBP decreased approximately 80% in the HOCs (FIG. 29).
molecule,measurement,setting,value
B1,mean maximum clinical score,"mice with EAE; PID17, 0-5 point scale, DOX+ 2.66±0.80",2.69±0.69
same,mice that developed hind limb paralysis,"mice with EAE; PID17, control twenty of 25",24 of 30
same,mice with hind limb paralysis that continued to suffer from the paralysis,mice with EAE; PID50,12/24
same,clinical score,"mice with EAE; PID 50, control DOX+ less than 1",~2
same,decrease of MBP levels,[1],approximately 80%
